According to PMC3098852, “Molecular Design, Functional Characterization and Structural Basis of a Protein Inhibitor Against the HIV-1 Pathogenicity Factor Nef” (PLoS ONE, 2011):

B1: GST-NI1-2, GST fusion of Hck-SH3 (78-138) with RT loop V90SWSPD (domain or fragment)
chain: not shown
notes: source: bacteria (pGEX-4T1 Tev vector), purified (GSH resin, Superdex 75); not shown: GST, N-terminal, kept
B2: NI1-2, Hck-SH3 (78-138) with RT loop V90SWSPD (domain or fragment)
chain: not shown
notes: source: bacteria (pGEX-4T1 Tev vector), purified (GSH resin, Superdex 75)
B3: NI1-3, Hck-SH3 (78-138) with RT loop Y90SPFSW (domain or fragment)
chain: SEDIIVVALYDYYSPFSWDLSFQKGDQMVVLEESGEWWKARSLATRKEGYIPSNYVARVDS
notes: as for B2

Experiments:
[1] = molecular target: T1, HIV-1 NefSF2 wild type, full length (1-210), C210A (HIV-1 SF2, UniProt P03407, C210A); assay: ITC; conditions: both partners purified
T1 construct: source: E. coli BL21(DE3), purified (Ni-NTA, Superdex 75)

[2] = molecular target: T2, HIV-1 NefSF2 (Δ1-44), C210A (HIV-1 SF2, UniProt P03407 45-210, C210A); assay: ITC; conditions: both partners purified
T2 construct: source: E. coli BL21(DE3), purified (Ni-NTA, Superdex 75)

Row | Binder | Kd [1] [nM] | dH [1] [kcal/mol] | stoichiometry N [1] | Kd [2] [nM] | dH [2] [kcal/mol] | stoichiometry N [2]
1 | B1 | 140 ± 6.7 | -8.9 ± 0.02 | 1.07 |  |  | 
2 | B2 |  |  |  | 179 ± 29 | -8.16 ± 0.07 | 0.99
3 | B3 |  |  |  | 48 ± 11 | -7.99 ± 0.07 | 0.95
